Reference: patent publication US20090156489A1 (Genentech, published 2009)

Assays:
[1] = biological target: T1, DCC expressed on COS cells (human, UniProt P43146 26-1447); assay: cell surface binding assay on transfected COS7 cells, fluorescence microscopy (data not shown)
T1 construct: whole, on cells
Procedure: (§1) The resultant fusion proteins were expressed and used in binding assays over a panel of ˜400 putative cell surface transmembrane or GPI-anchored cell surface human proteins that were transiently expressed in COS7 cells. Purified ECD-Fc fusion proteins (0.5 μg/ml) or the crude baculovirus lysates were added to transiently transfected COS7 cells for 1-2 hours at room temperature. After 3 rinses with cold phosphate buffered saline (PBS), the bound protein was cross-linked to the cell surface with 4% paraformaldehyde. The bound Fc fusion protein was detected by biotinylated anti-human IgGFc and R-phycoerythrin-conjugated streptavidin (Jackson Immunoresearch). Cell surface staining was visualized by fluorescent microscopy and images were taken with the Penguin 800CL digital camera system (Pixera).
(§2) Although the NGL-1 and Netrin-G1 interaction appeared to be specific within the context of the screen, the classical Netrins and their known receptors, DCC and Unc5, were not included in the screen. Thus whether NGL-1 also interacts with Netrin-1 and its receptors was determined. Using the same cell surface binding assay, NGL-1, Netrin-G1, or Netrin-1 were expressed in COS7 cells (rows in FIG. 1a-i) and their ability to bind the IgG Fe fusion protein of NGL-1, Netrin-G1, or DCC (columns in FIG. 1a-i) was determined. […]

[2] = biological target: chicken Netrin-1 expressed in COS7 cells (chicken, UniProt Q90922 26-606); assay: cell surface binding assay on transfected COS7 cells, fluorescence microscopy
Procedure: as §1, §2

T1 sequence (P43146 26-1447): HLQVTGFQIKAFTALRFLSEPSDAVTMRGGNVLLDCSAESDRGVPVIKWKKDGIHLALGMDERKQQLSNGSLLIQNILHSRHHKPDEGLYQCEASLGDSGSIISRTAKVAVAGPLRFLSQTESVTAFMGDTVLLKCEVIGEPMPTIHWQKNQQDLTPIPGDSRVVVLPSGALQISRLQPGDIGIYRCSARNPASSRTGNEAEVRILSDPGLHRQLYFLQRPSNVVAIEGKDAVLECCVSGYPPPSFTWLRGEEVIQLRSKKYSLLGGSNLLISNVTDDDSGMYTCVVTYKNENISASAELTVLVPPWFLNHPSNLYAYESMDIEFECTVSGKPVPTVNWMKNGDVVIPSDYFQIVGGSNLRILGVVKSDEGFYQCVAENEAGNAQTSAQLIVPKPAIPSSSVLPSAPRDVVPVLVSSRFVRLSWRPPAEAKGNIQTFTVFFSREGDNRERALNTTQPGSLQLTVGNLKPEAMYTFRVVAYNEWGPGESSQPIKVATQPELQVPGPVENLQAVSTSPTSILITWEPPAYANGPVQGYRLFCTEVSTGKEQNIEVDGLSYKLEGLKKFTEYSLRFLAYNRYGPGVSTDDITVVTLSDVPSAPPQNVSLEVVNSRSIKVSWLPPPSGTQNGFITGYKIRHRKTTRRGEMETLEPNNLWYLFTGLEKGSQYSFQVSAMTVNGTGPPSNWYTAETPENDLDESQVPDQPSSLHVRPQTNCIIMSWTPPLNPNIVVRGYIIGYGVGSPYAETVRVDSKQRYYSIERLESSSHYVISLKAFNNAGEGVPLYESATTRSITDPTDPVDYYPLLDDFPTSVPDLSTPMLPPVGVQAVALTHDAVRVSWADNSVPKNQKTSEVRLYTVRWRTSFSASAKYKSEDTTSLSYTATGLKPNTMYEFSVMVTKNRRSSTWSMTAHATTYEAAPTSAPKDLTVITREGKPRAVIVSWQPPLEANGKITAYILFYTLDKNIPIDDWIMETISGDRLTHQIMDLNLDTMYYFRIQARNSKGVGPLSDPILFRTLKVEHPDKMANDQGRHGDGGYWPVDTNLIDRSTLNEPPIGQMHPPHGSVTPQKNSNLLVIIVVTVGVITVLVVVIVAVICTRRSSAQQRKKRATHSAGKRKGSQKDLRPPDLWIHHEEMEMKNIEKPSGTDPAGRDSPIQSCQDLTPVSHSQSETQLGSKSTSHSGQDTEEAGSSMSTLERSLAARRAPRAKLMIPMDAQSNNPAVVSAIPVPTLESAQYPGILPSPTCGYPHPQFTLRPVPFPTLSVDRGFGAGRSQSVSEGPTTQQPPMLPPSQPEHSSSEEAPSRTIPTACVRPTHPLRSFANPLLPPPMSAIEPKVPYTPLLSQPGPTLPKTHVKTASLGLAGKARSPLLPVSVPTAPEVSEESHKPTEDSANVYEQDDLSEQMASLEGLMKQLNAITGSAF

- binding result [1]: no binding
- binding result [2]: no binding
B1: human Netrin-G1-Fc (Fc fusion, UniProt Q9Y2I2-1 29-409, looked up)
chain: HYDLCKTQIYTEEGKVWDYMACQPESTDMTKYLKVKLDPPDITCGDPPETFCAMGNPYMCNNECDASTPELAHPPELMFDFEGRHPSTFWQSATWKEYPKPLQVNITLSWSKTIELTDNIVITFESGRPDQMILEKSLDYGRTWQPYQYYATDCLDAFHMDPKSVKDLSQHTVLEIICTEEYSTGYTTNSKIIHFEIKDRFAFFAGPRLRNMASLYGQLDTTKKLRDFFTVTDLRIRLLRPAVGEIFVDELHLARYFYAISDIKVRGRCKCNLHATVCVYDNSKLTCECEHNTTGPDCGKCKKNYQGRPWSPGSYLPIPKGTANTCIPSISSIGTNVCDNELLHCQNGGTCHNNVRCLCPAAYTGILCEKLRCEEAGSCGS
notes: extracellular domain; also called Netrin-G1-Fc fusion protein; not shown: human IgG1 Fc region
